Experiment: yeast display, Sf9 membrane polyspecificity reagent, FACS + sequencing; frameworks hold sequencing errors
Procedure, shortened: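 Nanobodies came from a synthetic yeast display library in Saccharomyces cerevisiae BJ5465, induced with galactose for 36–48 hours and stained for 1 hour at 4 °C with 10% biotinylated, detergent-solubilized Sf9 membrane reagent. Cells were enriched on streptavidin microbeads and then FACS-sorted, with low and high (top ~1%) gates set on anti-HA fluorescence for expression and streptavidin fluorescence for reagent binding. Each polyreactivity label reflects the gate a clone came from. Genes were amplified by colony PCR, sequenced by MiSeq 2 × 250 and filtered by CDR length.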

Sequence	polyreactivity (PSR sort gate)
QVQLVESGGGLVQAGGSLRLSCAASGNTFYVYTMGWYRQAPGKERELVAAISSTGDRTYYADSVKGRFTISRDYAKNTVYLQMNSLKPEETAVYYCAARLYRGYRGYYYWGQGTQVTVSS	high polyreactivity
QVQLVESGGGLVQAGGSLRLSCAASGSTFTYYAMGWYRQAPGNEREFVASLTYRGGRTNYADSVKGRFTISRDNATNTVYLQMNRQKPEDTAVYYCAARQRWTYAYDYWGQGTQVTVSS	high polyreactivity
QVHLVESAGCLVQAAGSLRLSCSASGFTFGYNTMGWFRQPPGKERELVAAISYGGGRTYYADSVKWRFTISRDNAKNTVYLQMNSLKPEDSAVYYCAAAPIPSLTYDYWGQGTQVTVSS	low polyreactivity
QVQLVESGGGLVQAGGSLRLSCAASGRTFYRYAMGWYRQAPGKERELVARIRSGGSTNYADSVKGRFTISRDNAKNTVYLQMNSLKPEDTAVYYCAVDDAYPDRYDYWGQGTQVTVSS	high polyreactivity
QVQLVESGGGLVQAGGSLRLSCAASGSTFRIYAMGWYRQAPGKERELVARISWNGGRTYYADSVKGRFTISRDNAKNTVYLQMNSLKPEDTAVYYCNARSQGWYYFPDNDYWGQGTQVTVSS	high polyreactivity
QVQLVESGGGLVQAGGSLRLSCAASGSTFYVYAMGWYRKAPGKEREFVAVITTSGGTTYYADSVKGRFTISRDNAKNTVYLQMNSLKPEDTAVYYCNAGVGYYSLPYDYWGQGTQVTVSS	low polyreactivity
QVQLVESGGLLVQGGVSLRLSCAASGSTLYIYAMGWYRQAPGKERELVAANTWSGGRTFYADSVKGRFTISRDNAKNTVSLQMNSLTPEDTAVYYCAARILSDKTGSRYYYWGQGTQVTVSS	high polyreactivity
QVQLVESGGGLVQAGGSLRLSSAASGRTFYYYAFGWYRQAPGKERELVARITAICGRTYYADSVKGRFTISLDNAKNTVYLQMNCLKPEDTAVYYCAAASWPAYSYYPFYYWGQGSQVTVSS	high polyreactivity
QVQLVESGGGLVQAGGSLRLSCAASGSTFWYYAMGWYRQAPGKERELVAAITTGGDTTNYADSVKGRFTISRDNAKNNVYLQMNSLKPADTAVYYCARDTGYDLIVLPDDSWGQGTQVTVSS	low polyreactivity
QVQLVESGGGLVQAGGSLSLSCPASGRTFSTNAMGWYRQAPGKEREMVAAISARGGSTYYADSVKGRFTISRDNAKNTVYLQMNSLKPEDTAVEYCALRPGRYSYAFDFWGQGTQVTVSS	high polyreactivity
QVQLVESGGGLVQAGGSLRLSCAASGFTCAWYTMGWYREAPGKERELVAAISLNGGSTYYADSVKGRFTISRDNAKNTVYLQMNRLKPEDTAVYYCAKGYRWPYYPYDYWGQGTQVTVSS	low polyreactivity
QVQLVESVGGLVQAGGSLRLSCAASGIIFRANAMGWYRQAPGKERELVAAISGRGSSTTYADSVKGRFTISRDNAKNTVYLQMNSLKPEDTAVYYCAAGYGKWFATWRSQKYDYWGQGTQVTVSS	high polyreactivity
QVQLVESGGGLVQAGGSLRLNCAASGNIFISYAMGWYRQAPGKERELVAAISRSGGSTYYADSVKGRFTISRDYAKNTVYLQMNSLKPEDTAVYYCAAYIGPGRYGSWGQGTQVTVSS	high polyreactivity
QVQLVESAGGLVQAGGSLRLSCAASGRIYGIYAMGWYRQAPGKERELVASITDGTITNYADSVKGRFTISRDNAKNTVYLQKNSLKPEDTAVYYCAAGTQAHAYVVRPIEMDYWGQGTQVTVSS	low polyreactivity
QVQLVESGGGLVQAGGSLRISCAASGNIFGVYAMGWYRQAPGKERELVATITTGGSTYYADSVKGRFTISRDNAKNTVYLQMNSLKPEDTAVYYCAADVGGGNYVYYGNDYDDGYWGQGTQVTVSS	low polyreactivity
QVQLVESGGGLVQAGGSLRLSCAASGLTYADYAMGWYRQAPGKDRQLVAAISRRGGSTYYADSVKGRFTISRDKAKNTVYLQMNSLKPEDTAVYYCAAYAYDVAFKRYKFDYWGQGTLVTVSS	high polyreactivity

Sequence	polyreactivity (PSR sort gate)
QVQLVESGGGLVQAGRSLRLSCAASGFIFRYYAMGWYRQAPGKETELVAAIRGGGSTYYADSVKGRFTISRDNAKNTVYLQMKSLNPEDTAVYYCAVRWVSRFGISSYDYWGQGTQVTVSS	high polyreactivity
QVQLVVSGGGLVQAGGSLRLRCAASGRTIWPYAMGWYRQAPRKESEFDAAITWTVGRTYYADSVKGRFTISRDNAKNTVYLQMNSLKPDDTAVYYCNARSYSQTLFGYPDDYWGQGTQVTVSS	high polyreactivity
QVQLVESGGGLVQAGGSLRLSCAASGFTISRYTMGWYRQAPGKERELVASITRRAGSTYYADSVKGRYTISRDNAQTTVYLQMYSLKPEDTAVYYCAAYGWTFSKVDLEMDYWGQGTQVTVSS	high polyreactivity
QVQLVESGGGLVQAGGSLRLSCAASGRTFAYYTMGWYRQAPGKERELVAAITSSGGSTYYADSVKGRFTISRDNAKNTVYLQMNSLKPEDTAVYYCNAYGLRWASRLGYDYWGQGTQVTVSS	high polyreactivity
QVQLVESGGGLVQAGGSLRLSCAASGSIFFFNAMGWYRQAPGKVREFVAAITSSSGRTYYADSVKGRFTISRDNAKNTVYLQMNSLKPEDTAVYYCAAQVPEDTETVDYWGQGTQVTVSS	low polyreactivity
QVQLVESGGGLVHAGGSLRLSCAASGTIFYRNAMGWYRQAPGKERELVAAITSRGGRTYYADSVKGRFTISRDNAKNTVYLQMNSLKPEDTAVYDCNKRYVYSTSDYDYWGQGTQVTVSS	high polyreactivity
QVQLVESGGGLVQAGGRLRLSCAASGFILATNAMGWYRQAPGKERELVAAISYSGGSTNYADSVKGRFTISRDNAKNTVYLQMNSLKPEDTAVYYCNAGGTVIWAWYGPVYSWGQGTQVTVSS	low polyreactivity
QVQLVESGGGLVQAGGSLRLSCAASGFTFTRYAMGWYRQAPGKERELVASISTSGGRTYYADSVKGRFTISRDNAKNTVYLQMNSLKPEDTAVYYCAASWNTQSRGWQYDYWGQGTQVTVSS	low polyreactivity
QVQLVESGGGLVQAGGSLRLSCVASGRIFLTYAMGWYRQAPGKERELVAAISYSGASTYYADSVKGRFTISRDNAKNTVYLQMNSLKPEDTSVYYCATERVGTPRMNYWGQGTQVTVSS	high polyreactivity
QVQLVESGGGLVQAGGSLRLSCAASGFIFSSYAMGWYRQAPGKERELVAAISRGGSTYYADSVKGRFTISRDNAKNTVYLQMNSLKPEDTAVYYCNARRYRHDGYWGQGTQVTVSS	high polyreactivity
QVQLVESGGGLVQLGGSLRLSCAASGSIIFSYAIGWSRQAPWKERELVADNRSSDDDTYYADSVKGRFTISRDNAQNTDYLDMNSLKPEDTGGYYCNADFGYWWDGRRYDYWVQGTQVTVSS	low polyreactivity
QVQLVESGGGLVQAGGSLRLSCAASGGTFVGNAMGWYRQAPGKERELVAAISTNSGSTYYADSVKGRFTISRDNAKNTVYLQMNSLKPEDTAVYYCATRNSSKRRGYYYWGQGTQVTVSS	high polyreactivity
QVLLVESGGGLVQAGGSLRVSCAASGRTFGGYGMGWYRQAPGKDRELVASISFSGGAGTYYADSVKGRFTISRDNATTPVYLQMNSLKPEDTAVYYCAKRYVTPTYRRYSWGQGTQETVSS	high polyreactivity
QVQLVESGGGLVQAGCSLRLICAASGFTFGRNAMGWYRQAPGKEREFVADISGSVGSTYYADSVKGRFTISRDNAKNTVYLQMNSLKPEDTAVYYCAADTLYTRWEFDYWGQGTLVTVSS	high polyreactivity
QVQLVESGGGLVQAGGSLRLSCAASGFTFGKYARGWYRQAPGKERELVAAISRSGGSTYYADSVKGRFTISRDNAKNTVYLQMNSLKPEDTAVYYCAAYHPIQEYDYWGQGTQVTVSS	high polyreactivity
